Experimental data reported in patent publication US20240027467A1 (VIB VZW, published 2024).
Like-named read-outs stand apart in the source and are kept apart here.

Columns and labels:
mCherry [1] = test: BLI
mCherry [2] = test: BLI (OctetRed), biotinylated Nb on streptavidin sensor, mCherry 8.23-222 nM
[3] = target: T1, FmIH_lectin_mCherry_his (CA17337); test: displacement of FmlH_lectin_mCherry_his from immobilised CA16964 (NANEX column) by 1 mg CA17302; A280 and SDS-PAGE [D00043 FIG. 39B]
T1 construct: also called mCherry-fusion protein

mCherry [4] = test: BLI (OctetRed), biotinylated Nb on streptavidin sensor, mCherry 8.23-222 nM; remark: listed apart in the source
mCherry [5] = test: BLI; remark: listed apart in the source
[6] = target: T1, FmIH_lectin_mCherry_his (CA17337); test: NANEX column: lysate with FmlH_lectin_mCherry_his on immobilised CA17341; A280/A585 and SDS-PAGE [D00045 FIG. 41B]
[7] = target: T2, native human coagulation factor IX (human, UniProt P00740 47-461); test: NANEX column: 30 mL human plasma recirculated over immobilised CA11143; A280, SDS-PAGE and western blot [D00046 FIG. 42B; D00047 FIG. 42C]
T2 construct: Native protein captured from plasma; also called FIX

[8] = target: T2, native human coagulation factor IX; test: displacement of native factor IX from immobilised CA11143 (NANEX column) by 1 mg MegaBody CA16383; A280, SDS-PAGE and western blot [D00046 FIG. 42B; D00047 FIG. 42C]
[9] = target: T2, native human coagulation factor IX; test: NANEX column: 30 mL human recovered plasma recirculated over immobilised MegaBody CA16388; A280, SDS-PAGE and western blot [D00048 FIG. 43B; D00048 FIG. 43C]
[10] = target: T3, CA16607 eGFP-tagged human recombinant glucocorticoid receptor (eGFP-6His-TEV-GR) (human); test: NANEX column: HEK293T lysate with GFP-GR on immobilised CA15816; A280/A488, SDS-PAGE, western blot [D00049 FIG. 44B]
T3 construct: Expressed in HEK293T cells, captured from the lysate; also called GFP-GR; eGFP-GR

[11] = target: T4, CA16976 eGFP-tagged human recombinant androgen receptor (eGFP-6His-TEV-ARb) (human); test: NANEX column: HEK293T lysate with GFP-ARb on immobilised CA15816; A280/A488
T4 construct: Expressed in HEK293T cells, captured from the lysate; also called GFP-ARb; eGFP-ARb

GFP protein [12] = target: T5, GFP protein (Aequorea victoria (Water jellyfish) …, UniProt P42212 1-238 = GFP); test: BLI (OctetRed), biotinylated Nb on streptavidin sensor, GFP as analyte
T5 construct: Purified GFP used as BLI analyte, in crystals and in NANEX; also called Green fluorescent protein

GFP protein [13] = target: T5, GFP protein; test: BLI
[14] = target: EPEA-tagged GFP (GFP-EPEA) protein; test: BLI; analyte not stated

T2 sequence (P00740 47-461 limits assumed): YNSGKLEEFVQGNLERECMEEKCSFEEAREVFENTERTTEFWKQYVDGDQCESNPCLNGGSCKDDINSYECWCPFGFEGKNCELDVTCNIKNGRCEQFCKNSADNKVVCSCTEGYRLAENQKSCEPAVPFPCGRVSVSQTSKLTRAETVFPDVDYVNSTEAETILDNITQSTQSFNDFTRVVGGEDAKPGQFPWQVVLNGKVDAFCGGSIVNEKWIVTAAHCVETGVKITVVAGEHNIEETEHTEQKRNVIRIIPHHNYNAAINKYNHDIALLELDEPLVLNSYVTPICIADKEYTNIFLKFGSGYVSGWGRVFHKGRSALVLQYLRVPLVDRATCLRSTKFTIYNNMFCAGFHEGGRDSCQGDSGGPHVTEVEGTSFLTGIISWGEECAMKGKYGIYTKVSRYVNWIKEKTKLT
T4 sequence (chain, as listed by the source limits assumed): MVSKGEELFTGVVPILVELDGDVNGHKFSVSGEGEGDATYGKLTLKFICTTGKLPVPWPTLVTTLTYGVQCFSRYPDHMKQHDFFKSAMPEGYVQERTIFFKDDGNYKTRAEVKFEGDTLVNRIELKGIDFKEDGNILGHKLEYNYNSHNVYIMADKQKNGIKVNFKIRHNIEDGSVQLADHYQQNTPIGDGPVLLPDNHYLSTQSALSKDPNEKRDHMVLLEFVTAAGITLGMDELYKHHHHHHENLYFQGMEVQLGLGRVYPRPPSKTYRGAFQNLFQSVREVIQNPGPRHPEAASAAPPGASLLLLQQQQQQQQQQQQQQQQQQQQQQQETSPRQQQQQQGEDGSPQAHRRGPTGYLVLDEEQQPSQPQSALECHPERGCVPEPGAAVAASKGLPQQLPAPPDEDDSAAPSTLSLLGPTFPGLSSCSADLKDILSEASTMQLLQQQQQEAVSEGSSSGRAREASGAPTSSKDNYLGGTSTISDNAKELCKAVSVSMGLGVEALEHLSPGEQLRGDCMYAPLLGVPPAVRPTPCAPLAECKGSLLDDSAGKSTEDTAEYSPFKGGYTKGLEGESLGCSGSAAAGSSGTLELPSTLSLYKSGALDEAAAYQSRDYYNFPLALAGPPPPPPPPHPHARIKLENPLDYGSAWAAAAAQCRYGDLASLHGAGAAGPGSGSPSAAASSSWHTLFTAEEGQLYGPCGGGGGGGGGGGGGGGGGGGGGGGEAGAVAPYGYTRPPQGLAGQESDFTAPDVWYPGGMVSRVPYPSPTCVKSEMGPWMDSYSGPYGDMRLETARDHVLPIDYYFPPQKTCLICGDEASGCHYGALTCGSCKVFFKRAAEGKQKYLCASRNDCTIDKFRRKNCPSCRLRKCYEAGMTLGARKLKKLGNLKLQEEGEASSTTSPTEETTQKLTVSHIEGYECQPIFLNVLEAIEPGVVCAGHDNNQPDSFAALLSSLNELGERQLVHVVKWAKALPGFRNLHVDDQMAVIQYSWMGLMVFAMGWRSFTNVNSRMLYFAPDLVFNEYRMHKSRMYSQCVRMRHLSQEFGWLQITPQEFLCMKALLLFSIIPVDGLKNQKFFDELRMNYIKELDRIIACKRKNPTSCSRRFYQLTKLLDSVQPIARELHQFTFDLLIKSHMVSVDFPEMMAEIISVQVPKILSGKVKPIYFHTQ
T3 sequence (chain, as listed by the source limits assumed): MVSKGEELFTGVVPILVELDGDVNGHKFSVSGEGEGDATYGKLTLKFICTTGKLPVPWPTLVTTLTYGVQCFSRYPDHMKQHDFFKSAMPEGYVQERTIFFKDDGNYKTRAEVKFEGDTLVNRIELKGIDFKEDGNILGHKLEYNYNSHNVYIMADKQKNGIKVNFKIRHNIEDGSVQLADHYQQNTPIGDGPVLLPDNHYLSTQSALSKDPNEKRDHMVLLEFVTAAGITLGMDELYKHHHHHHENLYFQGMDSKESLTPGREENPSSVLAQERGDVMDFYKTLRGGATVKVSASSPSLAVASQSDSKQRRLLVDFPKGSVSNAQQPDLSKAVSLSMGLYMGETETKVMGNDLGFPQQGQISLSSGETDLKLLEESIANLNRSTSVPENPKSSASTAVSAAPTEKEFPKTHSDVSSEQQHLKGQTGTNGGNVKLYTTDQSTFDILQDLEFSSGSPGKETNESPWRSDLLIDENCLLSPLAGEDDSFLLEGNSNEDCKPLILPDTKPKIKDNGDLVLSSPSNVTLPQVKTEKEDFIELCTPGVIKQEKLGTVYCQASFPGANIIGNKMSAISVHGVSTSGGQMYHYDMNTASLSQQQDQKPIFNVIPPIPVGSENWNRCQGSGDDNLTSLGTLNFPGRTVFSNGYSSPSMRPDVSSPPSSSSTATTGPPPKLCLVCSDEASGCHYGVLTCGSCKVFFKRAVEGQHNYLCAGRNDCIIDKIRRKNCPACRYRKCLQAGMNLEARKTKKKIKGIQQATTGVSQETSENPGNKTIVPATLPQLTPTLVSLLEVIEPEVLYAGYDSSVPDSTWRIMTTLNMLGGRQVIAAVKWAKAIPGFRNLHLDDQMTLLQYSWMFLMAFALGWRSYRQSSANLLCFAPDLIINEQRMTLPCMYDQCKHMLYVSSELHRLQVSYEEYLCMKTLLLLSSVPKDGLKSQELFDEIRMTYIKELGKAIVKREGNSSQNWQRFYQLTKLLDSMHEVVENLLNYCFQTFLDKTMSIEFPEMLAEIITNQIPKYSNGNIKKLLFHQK

B1: CA17302 mCherry Nanobody stripper (including C-terminal 6xHis+EPEA tag) (VHH)
VHH: QVQLVESGGGLVQAGGSLRLSCVASGLPFSRYNMAWFRQAPGKEREFVADIDWSGDSTYDLDSVKGRFTISRDNAKNTVYLQMSSLLPEDTAVYYCAAHFKFILAQRIKWGDMDYWGKGTQVTVSS
modifications: biotinylated for BLI
notes: also called Nb CA17302
Q: Which “Half time ratio (relative to CA17302)” value (mCherry [1]) does the source give for B1 here?
A: The value was 1 fold.

Q: What about the “KD ratio (relative to CA17302)” value (mCherry [1]) of the same binder?
A: Its value is 1 fold.

Q: What about the Kd (mCherry [2]) of the same binder?
A: The Kd was 1.69 nM.

Q: And the koff (mCherry [2])?
A: Its koff is 0.00102 s⁻¹.

Q: And the kon (mCherry [2])?
A: The kon was 619000 M⁻¹ s⁻¹.

Q: Does B1 bind [3]?
A: Result: binds

Q: And the Kd (mCherry [4])?
A: Its Kd is 1.69 nM.

Q: What about the koff (mCherry [4]) of the same binder?
A: The koff was 0.00102 s⁻¹.

Q: And the kon (mCherry [4])?
A: Its kon is 619000 M⁻¹ s⁻¹.

Q: What about the “Half time ratio (relative to wt)” value (mCherry [5]) of the same binder?
A: The value was 1 fold.

Q: And the “KD ratio (relative to wt)” value (mCherry [5])?
A: The value was 1 fold.

B2: CA17341 mCherry Nanobody trapper (CA17302 mutant) (including C-terminal 6xHis+EPEA tag) (VHH)
VHH: QVQLVESGGGLVQAGGSLRLSCVASGLPFSRYNMAWFRQAPGKEREFVADIDWSGDSTYDLDSVKGRFTISRDNAKNTVYLQMSSLLPEDTAVYYCAAHFKFALAQRIKWGDMDYWGKGTQVTVSS
modifications: biotinylated for BLI
notes: also called Nb CA17341
Q: Which Kd (mCherry [2]) does the source give for B2 here?
A: The Kd was 4.05 nM.

Q: And the koff (mCherry [2])?
A: The koff was 0.00231 s⁻¹.

Q: What about the kon (mCherry [2]) of the same binder?
A: The kon was 601000 M⁻¹ s⁻¹.

Q: What about the “Half time ratio (relative to wt CA17302)” value (mCherry [5]) of the same binder?
A: Its value is 2.26 fold.

Q: And the “KD ratio (relative to wt CA17302)” value (mCherry [5])?
A: Its value is 2.4 fold.

Q: Does B2 bind [6]?
A: Result: binds

B3: CA11143 FIX Nanobody trapper (including C-terminal 6xHis+EPEA tag) (VHH)
VHH: QVQLVESGGALVQPGGSLRLSCAASGFTFDNYAMNWVRQAPGKGLEWVSGINWNGRNTYYAESVKDRFTISRDNAKNTLYLQMNSLKSEDTAVYYCAKEIITSGGPTGKYDYWGQGTQVTVSS
notes: also called Nb CA11143
Q: Does B3 bind [7]?
A: Result: binds

B4: CA16383 FIX functionalized Nanobody stripper (MegaBody MbCA10309^YgjK, including C-terminal 6xHis+EPEA tag) (other)
chain: QVQLVESGGGLVKEETQSGLNNYARVVEKGQYDSLEIPAQVAASWESGRDDAAVFGFIDKEQLDKYVANGGKRSDWTVKFAENRSQDGTLLGYSLLQESVDQASYMYSDNHYLAEMATILGKPEEAKRYRQLAQQLADYINTCMFDPTTQFYYDVRIEDKPLANGCAGKPIVERGKGPEGWSPLFNGAATQANADAVVKVMLDPKEFNTFVPLGTAALTNPAFGADIYWRGRVWVDQFWFGLKGMERYGYRDDALKLADTFFRHAKGLTADGPIQENYNPLTGAQQGAPNFSWSAAHLYMLYNDFFRKQASGGGSGGGGSGGGGSGNADNYKNVINRTGAPQYMKDYDYDDHQRFNPFFDLGAWHGHLLPDGPNTMGGFPGVALLTEEYINFMASNFDRLTVWQDGKKVDFTLEAYSIPGALVQKLTAKDVQVEMTLRFATPRTSLLETKITSNKPLDLVWDGELLEKLEAKEGKPLSDKTIAGEYPDYQRKISATRDGLKVTFGKVRATWDLLTSGESEYQVHKSLPVQTEINGNRFTSKAHINGSTTLYTTYSHLLTAQEVSKEQMQIRDILARPAFYLTASQQRWEEYLKKGLTNPDATPEQTRVAVKAIETLNGNWRSPGGAVKFNTVTPSVTGRWFSGNQTWPWDTWKQAFAMAHFNPDIAKENIRAVFSWQIQPGDSVRPQDVGFVPDLIAWNLSPERGGDGGNWNERNTKPSLAAWSVMEVYNVTQDKTWVAEMYPKLVAYHDWWLRNRDHNGNGVPEYGATRDKAHNTESGEMLFTVKKSLRLSCATSGIGFSIYSMGWYRQAPGKERELVASIAGNEDKDYVESVKGRFTISRDYAKNTLYLEMSGLKFEDTAMYYCAAGLRRGVSLTPYYWGQGTQVTVSSHHHHHHEPEA
notes: also called MegaBody CA16383
Q: Does B4 bind [8]?
A: Result: binds

B5: CA16388 FIX functionalized Nanobody trapper (MegaBody MbCA11143^YgjK, including C-terminal 6xHis+EPEA tag) (other)
chain: QVQLVESGGGLVKEETQSGLNNYARVVEKGQYDSLEIPAQVAASWESGRDDAAVFGFIDKEQLDKYVANGGKRSDWTVKFAENRSQDGTLLGYSLLQESVDQASYMYSDNHYLAEMATILGKPEEAKRYRQLAQQLADYINTCMFDPTTQFYYDVRIEDKPLANGCAGKPIVERGKGPEGWSPLFNGAATQANADAVVKVMLDPKEFNTFVPLGTAALTNPAFGADIYWRGRVWVDQFWFGLKGMERYGYRDDALKLADTFFRHAKGLTADGPIQENYNPLTGAQQGAPNFSWSAAHLYMLYNDFFRKQASGGGSGGGGSGGGGSGNADNYKNVINRTGAPQYMKDYDYDDHQRFNPFFDLGAWHGHLLPDGPNTMGGFPGVALLTEEYINFMASNFDRLTVWQDGKKVDFTLEAYSIPGALVQKLTAKDVQVEMTLRFATPRTSLLETKITSNKPLDLVWDGELLEKLEAKEGKPLSDKTIAGEYPDYQRKISATRDGLKVTFGKVRATWDLLTSGESEYQVHKSLPVQTEINGNRFTSKAHINGSTTLYTTYSHLLTAQEVSKEQMQIRDILARPAFYLTASQQRWEEYLKKGLTNPDATPEQTRVAVKAIETLNGNWRSPGGAVKFNTVTPSVTGRWFSGNQTWPWDTWKQAFAMAHFNPDIAKENIRAVFSWQIQPGDSVRPQDVGFVPDLIAWNLSPERGGDGGNWNERNTKPSLAAWSVMEVYNVTQDKTWVAEMYPKLVAYHDWWLRNRDHNGNGVPEYGATRDKAHNTESGEMLFTVKKSLRLSCAASGFTFDNYAMNWVRQAPGKGLEWVSGINWNGRNTYYAESVKDRFTISRDNAKNTLYLQMNSLKSEDTAVYYCAKEIITSGGPTGKYDYWGQGTQVTVSSHHHHHHEPEA
notes: also called MegaBody CA16388
Q: Does B5 bind [9]?
A: Result: binds

B6: CA15816 GFP-NbT54A/V55A (C-term. 6xHis + EPEA) (VHH)
VHH: QVQLVESGGGLVQAGGSLRLSCAASGRTFSTAAMGWFRQAPGKERDFVAGIYWAAGSTYYADSAKGRFTISRDNAKNTVYLQMDSLKPEDTAVYYCAARRRGFTLAPTRANEYDYWGQGTQVTVSS
modifications: biotinylated for BLI
notes: T54A/V55A mutant of CA12760; also called Nb CA15816
Q: Does B6 bind [10]?
A: Result: binds

Q: Does B6 bind [11]?
A: Result: binds

Q: What about the Kd (GFP protein [12]) of the same binder?
A: Its Kd is 2.7 nM.

Q: And the koff (GFP protein [12])?
A: Its koff is 0.00225 s⁻¹.

Q: What about the kon (GFP protein [12]) of the same binder?
A: Its kon is 835000 M⁻¹ s⁻¹.

Q: And the “Half-time ratio (relative to the wt Nb CA12760)” value (GFP protein [13])?
A: Its value is 70 fold.

Q: What about the “KD ratio (relative to the wt Nb CA12760)” value (GFP protein [13]) of the same binder?
A: Its value is 50 fold.

B7: CA4375, EPEA-NbSyn2 (C-term. 6xHis) (VHH)
VHH: QVQLQESGGGSVQAGGSLRLSCAASGIDSSSYCMGWFRQRPGKEREGVARINGLGGVKTAYADSVKDRFTISRDNAENTVYLQMNSLKPEDTAIYYCAAKFSPGYCGGSWSNFGYWGQGTQVTVSS
notes: Selected against human alpha-synuclein; also called monovalent CA4375; EPEA-specific Nanobody
Q: Which Kd [14] does the source give for B7 here?
A: The Kd was 60 nM.
